# Results published in paper PMC10786891, “Massively parallel profiling of RNA-targeting CRISPR-Cas13d”.
# Substitutions are numbered along the chain they refer to. Names may count otherwise.
# T1: EsCas13d, nuclease-dead (Eubacterium siraeum, UniProt B0MS50, R295A;H300A;R849A;H854A)
# T1 sequence: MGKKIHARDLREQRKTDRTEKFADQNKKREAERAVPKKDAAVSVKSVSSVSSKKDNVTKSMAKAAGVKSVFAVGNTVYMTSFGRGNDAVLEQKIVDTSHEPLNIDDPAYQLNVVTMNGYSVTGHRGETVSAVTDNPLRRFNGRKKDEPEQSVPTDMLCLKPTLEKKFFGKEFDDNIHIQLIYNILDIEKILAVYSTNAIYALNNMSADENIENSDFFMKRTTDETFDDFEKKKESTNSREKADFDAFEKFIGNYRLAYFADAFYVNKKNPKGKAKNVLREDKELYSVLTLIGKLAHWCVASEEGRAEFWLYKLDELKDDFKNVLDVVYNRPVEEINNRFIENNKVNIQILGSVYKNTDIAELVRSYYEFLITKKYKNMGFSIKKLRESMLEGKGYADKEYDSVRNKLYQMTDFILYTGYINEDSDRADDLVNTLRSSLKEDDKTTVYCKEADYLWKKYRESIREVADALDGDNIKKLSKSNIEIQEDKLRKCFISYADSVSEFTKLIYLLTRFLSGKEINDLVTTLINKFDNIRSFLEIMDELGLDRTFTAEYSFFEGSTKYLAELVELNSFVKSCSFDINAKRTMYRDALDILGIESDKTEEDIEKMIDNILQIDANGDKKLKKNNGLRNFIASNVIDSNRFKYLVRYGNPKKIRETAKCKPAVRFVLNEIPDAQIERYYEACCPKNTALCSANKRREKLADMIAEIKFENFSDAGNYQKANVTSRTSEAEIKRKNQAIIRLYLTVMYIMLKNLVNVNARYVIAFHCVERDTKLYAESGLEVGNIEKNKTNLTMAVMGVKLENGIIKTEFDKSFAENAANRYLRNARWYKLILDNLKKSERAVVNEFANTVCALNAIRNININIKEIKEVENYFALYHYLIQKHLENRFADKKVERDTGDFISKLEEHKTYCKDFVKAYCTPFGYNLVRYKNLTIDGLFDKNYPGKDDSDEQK
# B1: target 1 MT 5'PFS AGA 3'PFS ACA (mixed)
# RNA 1: CACCCGUGCAAAAAUGCAGGGGUCUAAAACUGAGCGGAUAACCUCUCUAUGG
# RNA 2: GGGAAUGGAUCCACAUCUACGAAUUCAGACCAUAGAGAGGUUAUCCGCUCAACAAGAUCGGAAGAGCACACGU
# B2: target 1 MT 5'PFS GGA 3'PFS CUC (mixed)
# RNA 1: B1 RNA 1
# RNA 2: B1 RNA 2 with A27G, A52C, C53U, A54C
# B3: target 1 MT 5'PFS AGG 3'PFS UUC (mixed)
# RNA 1: B1 RNA 1
# RNA 2: B1 RNA 2 with A29G, A52U, C53U, A54C
# B4: target 1 MT 5'PFS CCA 3'PFS CUA (mixed)
# RNA 1: B1 RNA 1
# RNA 2: B1 RNA 2 with A27C, G28C, A52C, C53U
# B5: target 1 MT 5'PFS CCU 3'PFS AAU (mixed)
# RNA 1: B1 RNA 1
# RNA 2: B1 RNA 2 with A27C, G28C, A29U, C53A, A54U
# B6: target 1 MT 5'PFS AGA 3'PFS UCA (mixed)
# RNA 1: B1 RNA 1
# RNA 2: B1 RNA 2 with A52U
# B7: target 1 MT 5'PFS GGA 3'PFS UCA (mixed)
# RNA 1: B1 RNA 1
# RNA 2: B1 RNA 2 with A27G, A52U
# B8: target 1 MT 5'PFS GUG 3'PFS GCC (mixed)
# RNA 1: B1 RNA 1
# RNA 2: B1 RNA 2 with A27G, G28U, A29G, A52G, A54C
# B9: target 1 MT 5'PFS GAC 3'PFS UUU (mixed)
# RNA 1: B1 RNA 1
# RNA 2: B1 RNA 2 with A27G, G28A, A29C, A52U, C53U, A54U
# B10: target 1 MT 5'PFS GUG 3'PFS AAU (mixed)
# RNA 1: B1 RNA 1
# RNA 2: B1 RNA 2 with A27G, G28U, A29G, C53A, A54U
# B11: target 1 MT 5'PFS UAA 3'PFS UCG (mixed)
# RNA 1: B1 RNA 1
# RNA 2: B1 RNA 2 with A27U, G28A, A52U, A54G
# B12: target 1 MT 5'PFS ACA 3'PFS UAC (mixed)
# RNA 1: B1 RNA 1
# RNA 2: B1 RNA 2 with G28C, A52U, C53A, A54C
# B13: target 1 MT 5'PFS GUU 3'PFS CUC (mixed)
# RNA 1: B1 RNA 1
# RNA 2: B1 RNA 2 with A27G, G28U, A29U, A52C, C53U, A54C
# B14: target 1 MT 5'PFS GUG 3'PFS GCG (mixed)
# RNA 1: B1 RNA 1
# RNA 2: B1 RNA 2 with A27G, G28U, A29G, A52G, A54G
# B15: target 1 MT 5'PFS UCG 3'PFS AGU (mixed)
# RNA 1: B1 RNA 1
# RNA 2: B1 RNA 2 with A27U, G28C, A29G, C53G, A54U
# B16: target 1 MT 5'PFS AGA 3'PFS ACC (mixed)
# RNA 1: B1 RNA 1
# RNA 2: B1 RNA 2 with A54C
# B17: target 1 G15C,A16U (mixed)
# RNA 1: B1 RNA 1
# RNA 2: B1 RNA 2 with A27G, G28U, A36U, G37C, A52C, A54G
# B18: target 1 MT 5'PFS GAC 3'PFS UUG (mixed)
# RNA 1: B1 RNA 1
# RNA 2: B1 RNA 2 with A27G, G28A, A29C, A52U, C53U, A54G
# B19: target 1 MT 5'PFS GGA 3'PFS CUA (mixed)
# RNA 1: B1 RNA 1
# RNA 2: B1 RNA 2 with A27G, A52C, C53U
# B20: target 1 MT 5'PFS GGA 3'PFS UCC (mixed)
# RNA 1: B1 RNA 1
# RNA 2: B1 RNA 2 with A27G, A52U, A54C
# B21: target 1 MT 5'PFS GUU 3'PFS CUU (mixed)
# RNA 1: B1 RNA 1
# RNA 2: B1 RNA 2 with A27G, G28U, A29U, A52C, C53U, A54U
# B22: target 1 C6U,C7U (mixed)
# RNA 1: B1 RNA 1
# RNA 2: B1 RNA 2 with A27G, G28U, C45U, C46U, A52C, A54G
# B23: target 1 MT 5'PFS AGA 3'PFS UCC (mixed)
# RNA 1: B1 RNA 1
# RNA 2: B1 RNA 2 with A52U, A54C
# B24: target 1 MT 5'PFS AGA 3'PFS UCU (mixed)
# RNA 1: B1 RNA 1
# RNA 2: B1 RNA 2 with A52U, A54U
# B25: target 1 MT 5'PFS CAU 3'PFS CUU (mixed)
# RNA 1: B1 RNA 1
# RNA 2: B1 RNA 2 with A27C, G28A, A29U, A52C, C53U, A54U
# B26: target 1 MT 5'PFS GGA 3'PFS UCG (mixed)
# RNA 1: B1 RNA 1
# RNA 2: B1 RNA 2 with A27G, A52U, A54G
# B27: target 1 insA 3' of 17,insC 3' of 9 (mixed)
# RNA 1: B1 RNA 1
# RNA 2: GGGAAUGGAUCCACAUCUACGAAUUCGUACCAUAGAAGAGGUUACUCCGCUCACCGAGAUCGGAAGAGCACACGU
# B28: target 1 MT 5'PFS GUU 3'PFS CUA (mixed)
# RNA 1: B1 RNA 1
# RNA 2: B1 RNA 2 with A27G, G28U, A29U, A52C, C53U
# B29: target 1 MT 5'PFS UCG 3'PFS AGA (mixed)
# RNA 1: B1 RNA 1
# RNA 2: B1 RNA 2 with A27U, G28C, A29G, C53G
# B30: target 1 MT 5'PFS GUU 3'PFS CUG (mixed)
# RNA 1: B1 RNA 1
# RNA 2: B1 RNA 2 with A27G, G28U, A29U, A52C, C53U, A54G
# B31: target 1 MT 5'PFS GUG 3'PFS AAA (mixed)
# RNA 1: B1 RNA 1
# RNA 2: B1 RNA 2 with A27G, G28U, A29G, C53A
# B32: target 1 MT 5'PFS AGG 3'PFS UUG (mixed)
# RNA 1: B1 RNA 1
# RNA 2: B1 RNA 2 with A29G, A52U, C53U, A54G
# B33: target 1 MT 5'PFS GUG 3'PFS AAG (mixed)
# RNA 1: B1 RNA 1
# RNA 2: B1 RNA 2 with A27G, G28U, A29G, C53A, A54G
# B34: target 1 C2G,G13C (mixed)
# RNA 1: B1 RNA 1
# RNA 2: B1 RNA 2 with A27G, G28U, G39C, C50G, A52C, A54G
# B35: target 1 MT 5'PFS AGA 3'PFS UCG (mixed)
# RNA 1: B1 RNA 1
# RNA 2: B1 RNA 2 with A52U, A54G
# B36: target 1 MT 5'PFS GGG 3'PFS GCU (mixed)
# RNA 1: B1 RNA 1
# RNA 2: B1 RNA 2 with A27G, A29G, A52G, A54U
# B37: target 1 MT 5'PFS ACG 3'PFS CAC (mixed)
# RNA 1: B1 RNA 1
# RNA 2: B1 RNA 2 with G28C, A29G, A52C, C53A, A54C
# B38: target 1 MT 5'PFS CAG 3'PFS CGU (mixed)
# RNA 1: B1 RNA 1
# RNA 2: B1 RNA 2 with A27C, G28A, A29G, A52C, C53G, A54U
# B39: target 1 MT 5'PFS GUG 3'PFS AAC (mixed)
# RNA 1: B1 RNA 1
# RNA 2: B1 RNA 2 with A27G, G28U, A29G, C53A, A54C
# B40: target 1 insG 3' of 10,insA 3' of 7 (mixed)
# RNA 1: B1 RNA 1
# RNA 2: B27 RNA 2 with A37G, G38A, A39G, G41U, U43G, C45U, U46C, C47A
# Biological target: T1, EsCas13d, nuclease-dead
# Assay: crRNA (strand 1, pre-loaded); Mg2+; 40 mM Tris-HCl pH 7.5, 150 mM NaCl, 6 mM MgCl2, 1 mM DTT, 0.1% Tween-20, 0.2 mg/ml BSA; 25 C; 10 min per concentration, then washed
# Details: tags: His6-TwinStrep-SUMO cleaved; N-terminal SNAP kept (SNAP-Surface 488); label: 3' end held by stalled T7 RNA polymerase
row,Binder,Kd
1,B1,56 ± 18 nM
2,B2,47 ± 17.5 nM
3,B3,33 ± 11 nM
4,B4,2.5 ± 0.8 nM
5,B5,16.7 ± 4.65 nM
6,B6,61 ± 23 nM
7,B7,17.9 ± 5.7 nM
8,B8,12.7 ± 1.6 nM
9,B9,11 ± 4.5 nM
10,B10,22.1 ± 1.75 nM
11,B11,23 ± 6.5 nM
12,B12,25.5 ± 11 nM
13,B13,21.5 ± 4 nM
14,B14,14.4 ± 2 nM
15,B15,50 ± 24.5 nM
16,B16,47 ± 16 nM
17,B17,47 ± 4 nM
18,B18,14.5 ± 4 nM
19,B19,27 ± 6.5 nM
20,B20,23 ± 7 nM

row,Binder,Kd
1,B21,16.4 ± 3.1 nM
2,B22,6.3 ± 0.5 nM
3,B23,49.5 ± 19 nM
4,B24,42 ± 15.5 nM
5,B25,~48.5 nM
6,B26,10.8 ± 1.2 nM
7,B27,12.3 ± 0.6 nM
8,B28,17.6 ± 3.25 nM
9,B29,39 ± 11 nM
10,B30,12.8 ± 1.4 nM
11,B31,30.3 ± 2.5 nM
12,B32,40.5 ± 9.5 nM
13,B33,23.1 ± 1.45 nM
14,B34,47 ± 3.5 nM
15,B35,47 ± 17.5 nM
16,B36,7.45 ± 1.45 nM
17,B37,~36 nM
18,B38,29.5 ± 10 nM
19,B39,23.9 ± 2.9 nM
20,B40,15.3 ± 0.6 nM
